B1: anti-HER2 antibody ITS001-V928 (antibody, V domains shown)
VH: QVQLVQSGAEVKKPGASVKVSCKASGYTFTSYGISWVRQAPGQGLEWMGWISAYNGNTNYAQKLQGRVTMTTDTSTSTAYMELRSLRSDDTAVYYCARELAYDAFDIWGQGTMVTVSS
VL: not shown
notes: The KD is told of the antibody before it was made into the IgG-TNFR1 receptor; also called ITS001-V928-based antibody; antibody of C644
B2: anti-HER2 antibody ITS001-V737 (antibody, V domains shown)
VH: B1 VH
VL: DIQMTQSPSSLSASVGDRVTITCRASQSISSYLNWYQQKPGKAPKLLIYAASSQAGLSLQSGVPSRFSGSGSGTDFTLTISSLQPEDFATYYCQQSYSTPLTFGGGTKVEIKR
notes: The KD by Biacore is told of the antibody before it was made into the IgG-TNFR1 receptor; also called ITS001-V737-based antibody; antibody of C645

Experiments:
[1] = target: T1, HER2 (as used for the affinity measurement) (UniProt P04626 23-652, limits assumed); test: affinity of the antibody for HER2; estimated to be several hundred nM, method not stated for this antibody
[2] = target: T1, HER2 (as used for the affinity …); test: Biacore, antibody against HER2; format not stated

Binder | Kd [1] [nM] | Kd [2] [nM]
B1 | > 200 | 
B2 |  | 107
